According to PMC9776393, “Gold Nanoparticles-MWCNT Based Aptasensor for Early Diagnosis of Prostate Cancer”:

Target: prostate-specific antigen (PSA) (human (semen), UniProt P07288 25-261)
Assay: electrochemical aptasensor (DPV); MCH-blocked MWCNT/AuNP electrode; LoD 1 pg/mL, linear 1-100 ng/mL (abstract) or 0.001-100 ng/mL (Table 2); PBS pH 7.2, [Fe(CN)6]3-/4- redox probe, 5 min binding; aptamer heated to 95 C and cooled, immobilized at room temperature with MgCl2 and NaCl; binding temperature not stated
Conditions: protein: commercial

Sequence of prostate-specific antigen (PSA) (P07288 25-261): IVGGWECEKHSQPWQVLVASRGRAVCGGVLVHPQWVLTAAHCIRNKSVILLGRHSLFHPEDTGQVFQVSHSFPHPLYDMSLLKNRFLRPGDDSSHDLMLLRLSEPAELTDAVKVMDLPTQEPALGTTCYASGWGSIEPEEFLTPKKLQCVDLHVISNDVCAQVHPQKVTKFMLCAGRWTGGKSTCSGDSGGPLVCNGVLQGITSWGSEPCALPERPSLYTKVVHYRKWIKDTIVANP

TTTTTAATTAAAGCTCGCCATCAAATAGCTTT (ssDNA, 5'-HS-(CH2)6 thiol) [PSA aptamer]: binds.
